Series [1] addresses RAC-PKα (Homo sapiens, UniProt P31749).
Series [2] deals with RAC-PK. The series is described as follows: RAC-PK activity immunoprecipitated from Swiss 3T3 cells (MBP substrate). Conditions: for Increase in RAC-PK activity: Swiss 3T3 cells, 1 μM okadaic acid, 0.1 mM vanadate, insulin or 10% FCS. The format is cell-based.
The subject of series [3] is RAC-PKα. The series is classed as cell-based, human.
Series [4] has as its system GSK3. The format is cell-based.
The test system of series [5] is RAC-PKα.
The subject of series [6] is MAPKAP kinase-1. Conditions: cited from earlier work.
Series [7] has as its target T1, p70 S6 kinase (Rattus norvegicus, UniProt P67999).
T1 construct: from tissue; host or cells: rat liver
Conditions: cited from earlier work; for Km: read-out: Km for phosphorylation by p70 S6 kinase.

Series [8] relates to C[C@H](NC(=O)[C@H](C)NC(=O)[C@H](CCCNC(=N)N)NC(=O)[C@@H]1CCCN1C(=O)[C@@H](N)CCCNC(=N)N)C(=O)N[C@H](C(=O)N[C@@H](Cc1ccccc1)C(=O)O)[C@@H](C)O. The series is described as follows: purified protein, by the assay type. Conditions: pH 7.5; 30.0 °C.
Series [9] concerns C[C@@H](O)[C@H](NC(=O)[C@H](CCCNC(=N)N)NC(=O)[C@@H]1CCCN1C(=O)[C@@H](N)CCCNC(=N)N)C(=O)NCC(=O)N[C@@H](CO)C(=O)N[C@@H](Cc1ccccc1)C(=O)O. The series is described as follows: purified protein, by the assay type. Conditions: other: phosphorylation by RAC-PKα; pH 7.5; 30.0 °C.
The subject of series [10] is CC(C)[C@H](NC(=O)[C@H](CCCNC(=N)N)NC(=O)[C@@H]1CCCN1C(=O)[C@@H](N)CCCNC(=N)N)C(=O)N[C@@H](CO)C(=O)N[C@@H](CO)C(=O)N[C@@H](Cc1ccccc1)C(=O)O. The series is described as follows: purified protein, by the assay type. Conditions: other: phosphorylation by RAC-PKα; pH 7.5; 30.0 °C.
Series [11] deals with C[C@H](NC(=O)CNC(=O)[C@H](CCCNC(=N)N)NC(=O)[C@@H]1CCCN1C(=O)[C@@H](N)CCCNC(=N)N)C(=O)N[C@@H](CO)C(=O)N[C@@H](Cc1ccccc1)C(=O)O. Description: purified protein, by the assay type. Conditions: other: phosphorylation by RAC-PKα; pH 7.5; 30.0 °C.
Series [12] relates to C[C@H](NC(=O)[C@H](Cc1ccccc1)NC(=O)[C@H](CO)NC(=O)[C@H](CO)NC(=O)[C@@H](NC(=O)[C@H](CCCNC(=N)N)NC(=O)[C@H](C)NC(=O)[C@H](CCCNC(=N)N)NC(=O)CN)[C@@H](C)O)C(=O)O. Description: purified protein, by the assay type. Conditions: other: phosphorylation by RAC-PKα; pH 7.5; 30.0 °C.
Series [13] concerns C[C@H](NC(=O)[C@H](CO)NC(=O)[C@H](CO)NC(=O)[C@@H](NC(=O)[C@H](CCCNC(=N)N)NC(=O)[C@@H]1CCCN1C(=O)[C@@H](N)CCCNC(=N)N)[C@@H](C)O)C(=O)O. The series is described as follows: purified protein, by the assay type. Conditions: other: phosphorylation by RAC-PKα; pH 7.5; 30.0 °C.
Series [14] relates to C[C@H](NC(=O)[C@H](Cc1ccccc1)NC(=O)[C@H](CO)NC(=O)[C@H](CO)NC(=O)[C@@H](NC(=O)[C@H](CCCNC(=N)N)NC(=O)[C@@H]1CCCN1C(=O)[C@@H](N)CCCNC(=N)N)[C@@H](C)O)C(=O)O. Description: purified protein, by the assay type. Conditions: other: phosphorylation by RAC-PKα; pH 7.5; 30.0 °C.
The subject of series [15] is C[C@@H](O)[C@H](NC(=O)[C@H](CCCNC(=N)N)NC(=O)[C@@H]1CCCN1C(=O)[C@H](CCCNC(=N)N)NC(=O)CN)C(=O)N[C@@H](CO)C(=O)N[C@@H](CO)C(=O)N[C@@H](Cc1ccccc1)C(=O)O. Description: purified protein, by the assay type. Conditions: other: phosphorylation by RAC-PKα; pH 7.5; 30.0 °C.
The test system of series [16] is C[C@H](NC(=O)[C@H](C)NC(=O)[C@H](CCCNC(=N)N)NC(=O)[C@@H]1CCCN1C(=O)[C@@H](N)CCCNC(=N)N)C(=O)N[C@@H](CO)C(=O)N[C@@H](Cc1ccccc1)C(=O)O. The series is described as follows: purified protein, by the assay type. Conditions: other: phosphorylation by RAC-PKα; pH 7.5; 30.0 °C.
Series [17] relates to C[C@@H](O)[C@H](NC(=O)[C@H](CCCNC(=N)N)NC(=O)[C@@H]1CCCN1C(=O)[C@@H](N)CCCNC(=N)N)C(=O)N[C@@H](CC(N)=O)C(=O)N[C@@H](CO)C(=O)N[C@@H](Cc1ccccc1)C(=O)O. The series is described as follows: purified protein, by the assay type. Conditions: other: phosphorylation by RAC-PKα; pH 7.5; 30.0 °C.
The test system of series [18] is CC(C)[C@H](NC(=O)[C@@H](NC(=O)[C@H](CCCNC(=N)N)NC(=O)[C@@H]1CCCN1C(=O)[C@@H](N)CCCNC(=N)N)[C@@H](C)O)C(=O)N[C@@H](CO)C(=O)N[C@@H](Cc1ccccc1)C(=O)O. The series is described as follows: purified protein, by the assay type. Conditions: other: phosphorylation by RAC-PKα; pH 7.5; 30.0 °C.
Series [19] relates to CC(C)[C@H](NC(=O)[C@H](CO)NC(=O)[C@H](CO)NC(=O)[C@@H](NC(=O)[C@H](CCCNC(=N)N)NC(=O)[C@@H]1CCCN1C(=O)[C@@H](N)CCCNC(=N)N)[C@@H](C)O)C(=O)O. Description: purified protein, by the assay type. Conditions: other: phosphorylation by RAC-PKα; pH 7.5; 30.0 °C.
In series [20] the test system is N=C(N)NCCC[C@H](NC(=O)[C@@H]1CCCN1C(=O)[C@@H](N)CCCNC(=N)N)C(=O)NCC(=O)N[C@@H](CO)C(=O)N[C@@H](CO)C(=O)N[C@@H](Cc1ccccc1)C(=O)O. The series is described as follows: purified protein, by the assay type. Conditions: other: phosphorylation by RAC-PKα; pH 7.5; 30.0 °C.
Series [21] deals with C[C@@H](O)[C@H](NC(=O)[C@H](CCCNC(=N)N)NC(=O)[C@@H]1CCCN1C(=O)[C@@H](N)CCCNC(=N)N)C(=O)N[C@@H](CO)C(=O)N[C@@H](CO)C(=O)N[C@@H](CCCCN)C(=O)O. Description: purified protein, by the assay type. Conditions: other: phosphorylation by RAC-PKα; pH 7.5; 30.0 °C.
The test system of series [22] is C[C@H](NC(=O)[C@H](CCCNC(=N)N)NC(=O)[C@@H]1CCCN1C(=O)[C@@H](N)CCCNC(=N)N)C(=O)NCC(=O)N[C@@H](CO)C(=O)N[C@@H](Cc1ccccc1)C(=O)O. Description: purified protein, by the assay type. Conditions: other: phosphorylation by RAC-PKα; pH 7.5; 30.0 °C.
The subject of series [23] is CC(C)C[C@H](NC(=O)[C@H](CO)NC(=O)[C@H](CO)NC(=O)[C@@H](NC(=O)[C@H](CCCNC(=N)N)NC(=O)[C@@H]1CCCN1C(=O)[C@@H](N)CCCNC(=N)N)[C@@H](C)O)C(=O)O. Description: purified protein, by the assay type. Conditions: other: phosphorylation by RAC-PKα; pH 7.5; 30.0 °C.
Series [24] deals with GSK3β. The format is cell-based, human.
Sequence of GSK3β (P49841 whole entry): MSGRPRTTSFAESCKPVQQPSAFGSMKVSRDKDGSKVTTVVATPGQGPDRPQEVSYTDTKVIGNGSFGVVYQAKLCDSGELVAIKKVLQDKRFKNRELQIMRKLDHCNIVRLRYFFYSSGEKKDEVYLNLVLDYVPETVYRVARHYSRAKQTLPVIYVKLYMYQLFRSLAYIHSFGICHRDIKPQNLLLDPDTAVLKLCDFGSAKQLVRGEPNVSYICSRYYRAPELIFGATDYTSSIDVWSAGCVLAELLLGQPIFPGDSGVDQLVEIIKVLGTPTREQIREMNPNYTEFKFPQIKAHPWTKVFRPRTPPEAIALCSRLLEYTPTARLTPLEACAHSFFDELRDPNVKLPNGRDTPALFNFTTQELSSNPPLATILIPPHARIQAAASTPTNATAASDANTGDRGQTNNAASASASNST
Where [25] appears, read: values marked *: data reported previously.

“And” between values parts separate entries of the source, which are not always exact repeats. Equal entries are not always repeated. Where two headings read alike, the source gives them in different places. No end group written: not given here. Some results are limits rather than exact numbers.

Sequence of RAC-PKα (Homo sapiens, UniProt P31749) (P31749 whole entry): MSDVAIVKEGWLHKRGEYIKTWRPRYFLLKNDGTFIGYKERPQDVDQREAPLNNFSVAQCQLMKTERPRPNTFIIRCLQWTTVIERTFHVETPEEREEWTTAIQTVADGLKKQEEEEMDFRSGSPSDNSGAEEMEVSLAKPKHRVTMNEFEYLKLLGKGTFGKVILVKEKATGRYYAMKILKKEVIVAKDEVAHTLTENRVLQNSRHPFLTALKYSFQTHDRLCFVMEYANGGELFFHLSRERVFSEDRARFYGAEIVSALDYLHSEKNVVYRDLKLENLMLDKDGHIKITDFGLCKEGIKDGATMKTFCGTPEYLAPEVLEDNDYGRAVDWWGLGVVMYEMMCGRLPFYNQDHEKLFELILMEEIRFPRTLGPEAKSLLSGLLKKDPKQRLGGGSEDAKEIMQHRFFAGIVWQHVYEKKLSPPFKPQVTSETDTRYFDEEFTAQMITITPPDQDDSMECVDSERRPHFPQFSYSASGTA
T1 sequence (P67999 24-525): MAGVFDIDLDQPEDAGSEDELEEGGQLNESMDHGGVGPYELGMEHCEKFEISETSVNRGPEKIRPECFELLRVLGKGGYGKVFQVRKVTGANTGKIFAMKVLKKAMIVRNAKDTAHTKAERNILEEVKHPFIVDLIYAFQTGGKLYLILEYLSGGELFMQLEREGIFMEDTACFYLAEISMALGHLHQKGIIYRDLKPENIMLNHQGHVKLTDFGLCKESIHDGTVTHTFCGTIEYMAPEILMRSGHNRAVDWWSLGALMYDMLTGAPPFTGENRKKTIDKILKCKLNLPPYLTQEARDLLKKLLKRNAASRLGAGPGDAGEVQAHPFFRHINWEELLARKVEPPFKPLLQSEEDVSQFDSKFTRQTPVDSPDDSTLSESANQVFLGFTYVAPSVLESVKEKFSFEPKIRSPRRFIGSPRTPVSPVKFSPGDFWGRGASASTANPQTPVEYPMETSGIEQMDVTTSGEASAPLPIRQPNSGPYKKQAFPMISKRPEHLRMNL

A word on the Km: it is the concentration of substrate that gives half-maximal velocity. In the case of RPRTASF, in series [1], the Km stood at 20 µM, the “V (0.1 mM)” value is recorded as 83 and the “Vmax (U/mg)” value is recorded as 213 U/mg.

Consider `[O]=[V]([O-])([O-])[O-]` [vanadate], for which the “Increase in RAC-PK activity” value in series [2] was found to be 11 fold.

Regarding RFRGGSF, in series [1], the Km is 105 µM, the “V (0.1 mM)” value is reported as 55 and the “Vmax (U/mg)” value is on record as 345 U/mg.

With RPRASSF, in [1], the Km was 12 µM, the “V (0.1 mM)” value turned out to be 89 and the “Vmax (U/mg)” value is recorded as 230 U/mg.

Turning to insulin: insulin from Novo-Nordisk, in [3], the “Activation of transfected RAC-PKα” value is on record as 20 fold and the “Half time for activation of transfected RAC-PKα” value was 1 min. Besides, the “Increase in RAC-PK activity” value in series [2] is listed as 4.5 fold. In addition, in series [4], the “Increase in 32P-labelling of GSK3-α and GSK3-β” value was 60-100%; the “Inhibition of GSK3” value is on record as 40-50%. In addition, in [5], the “Half-time (t0.5) of activation of RAC-PK” value is 1 min.

For the molecule RPRTSSE [RPRTSSE], the Km in series [1] (phosphorylation by RAC-PKα) was over 500 µM.

As for RPRTSS [RPRTSS], in series [1] (phosphorylation by RAC-PKα), the Km is over 500 µM.

With GRPRTSSFAEG, the Km in series [1] (phosphorylation by RAC-PKα) amounted to 4 µM.

As to `C=C1[C@@H](O)[C@@H]2O[C@]3(CC[C@H](/C=C/[C@@H](C)[C@@H]4CC(C)=C[C@@]5(O[C@H](C[C@@](C)(O)C(=O)O)CC[C@H]5O)O4)O3)CC[C@H]2O[C@@H]1[C@@H](O)C[C@H](C)[C@H]1O[C@@]2(CCCCO2)CC[C@H]1C` [okadaic acid], the “Activation of RAC-PK” value in [2] (Swiss 3T3, simultaneous 1 μM okadaic acid and 10% serum) amounted to 5 fold. The “Increase in RAC-PK activity” value in series [2] is recorded as 3 fold.

In the case of KKRNKTLSVA, the Km in series [6] (read-out: Km for phosphorylation by MAPKAP-K1) was 17 µM; in series [7], 34 µM. In addition, the “MAPKAP kinase-1 Vmax (U/mg)” value in [6] (setting [25]) is listed as 840* U/mg. Further, the “p70 S6 kinase Vmax (U/mg)” value in series [7] (setting [25]) is given as 760* U/mg. Also, the “Phosphorylation by RAC-PKα” value in series [1] is listed as “does not phosphorylate”.

Regarding RAC-PKα (Homo sapiens), the Km in [8] stood at 25 µM; in series [9], 25 µM; in [10], 25 µM; in series [11] it was 105 µM; in series [12], 10 µM; in series [13] it was 250 µM. For the same molecule, the Km in series [14] stood at 8 µM; in [15], 8 µM; in series [16], 25 µM; in [17], 30 µM; in series [18] it was 30 µM; in series [19] it was 21 µM. For the same molecule, the Km in series [20] stood at 60 µM; in [21] it was 80 µM; in series [22] it was 49 µM; in series [23] it was 8 µM. Besides, the Vmax in series [8] is 230 U/mg; in [9] it was 233 U/mg; in series [10] it was 273 U/mg; in series [11] it was 160 U/mg; in series [12] it was 230 U/mg; in series [13], 265 U/mg. Moreover, the Vmax is 305 U/mg in series [14]; 385 U/mg in series [15]; 215 U/mg in series [16]; 300 U/mg in series [17]; 365 U/mg in series [18]; 300 U/mg in series [19]. For the same molecule, the Vmax in series [20] was 163 U/mg; in series [21], 308 U/mg; in [22] it was 114 U/mg; in series [23] it was 278 U/mg.

Take RPRNSSF [RPRNSSF]: the Km in series [1] (phosphorylation by RAC-PKα) was over 500 µM.

Consider KKRNRTLSVA, for which the Km in series [7] is 1.5 µM.

For RPKTSSF [RPKTSSF], in [1] (phosphorylation by RAC-PKα), the Km was over 500 µM.

As for RPRTSTF [RPRTSTF], the Km in series [1] (phosphorylation by RAC-PKα) turned out to be 30 µM.

As to IGF-1, in series [3], the “Activation of transfected RAC-PKα” value is 46 fold and 38 fold; the “Half time for activation of transfected RAC-PKα” value amounted to 1 min.

Consider “HA-KD-RAC-PKα: kinase dead mutant, Lys179 changed to Ala”, for which, in series [24], the “Increase in GSK3 activity on PP2A treatment” value is listed as about 12%.

With KPRTSSF [KPRTSSF], the Km in series [1] (phosphorylation by RAC-PKα) is over 500 µM.

Take RPRTSSF [RPRTSSF]: in [1] (phosphorylation by RAC-PKα), the Km worked out at 5 µM.

B1: MBP: myelin basic protein, kinase assay substrate (protein, UniProt P02687 1-169, looked up)
Myelin basic protein: AAQKRPSQRSKYLASASTMDHARHGFLPRHRDTGILDSLGRFFGSDRGAPKRGSGKDGHHAARTTHYGSLPQKAQGHRPQDENPVVHFFKNIVTPRTPPPSQGKGRGLSLSRFSWGAEGQKPGFGYGGRASDYKSAHKGLKGHDAQGTLSKIFKLGGRDSRSGSPMARR
As for B1, in [1], the Km is 5 µM and the “Vmax (U/mg)” value is recorded as 25 U/mg.

The values above are taken from patent publication US7897371B2, “Activation of mutated RAC-PK” (Novartis AG, priority 1995, dated 2011).
